Legend:
human plasma kallikrein [1] = molecular target: T1, human plasma kallikrein (human, UniProt P03952 20-390; P03952 391-638); experiment: cell-based or functional assay
human plasma kallikrein [2] = molecular target: T1, human plasma kallikrein; experiment: apparent Ki (Ki,app), human pKal
mouse plasma kallikrein = molecular target: T2, mouse plasma kallikrein (mouse, UniProt P26262 20-638); experiment: apparent Ki (Ki,app), mouse pKal
T2 construct: mature; Source of the mouse enzyme used for Ki,app is not described; also called mouse pKal
T2 sequence (P26262 20-638 limits assumed): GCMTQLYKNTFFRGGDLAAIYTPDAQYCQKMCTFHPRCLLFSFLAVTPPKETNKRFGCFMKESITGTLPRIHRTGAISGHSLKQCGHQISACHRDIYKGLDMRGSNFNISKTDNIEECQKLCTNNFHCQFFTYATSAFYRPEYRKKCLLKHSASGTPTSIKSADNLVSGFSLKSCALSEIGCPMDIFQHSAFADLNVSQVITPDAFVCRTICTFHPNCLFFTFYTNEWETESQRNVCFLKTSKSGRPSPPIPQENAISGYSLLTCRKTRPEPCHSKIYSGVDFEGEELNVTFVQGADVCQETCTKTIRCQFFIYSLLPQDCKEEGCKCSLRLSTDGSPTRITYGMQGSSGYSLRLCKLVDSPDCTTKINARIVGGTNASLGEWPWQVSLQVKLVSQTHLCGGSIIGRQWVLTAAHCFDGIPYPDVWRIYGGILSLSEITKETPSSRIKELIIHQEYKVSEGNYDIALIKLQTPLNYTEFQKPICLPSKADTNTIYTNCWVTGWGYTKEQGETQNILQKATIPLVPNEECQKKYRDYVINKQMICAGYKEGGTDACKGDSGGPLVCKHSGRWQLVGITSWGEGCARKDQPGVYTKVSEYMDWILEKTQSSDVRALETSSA

T1 sequence (P03952 20-390, chain 1 of 2): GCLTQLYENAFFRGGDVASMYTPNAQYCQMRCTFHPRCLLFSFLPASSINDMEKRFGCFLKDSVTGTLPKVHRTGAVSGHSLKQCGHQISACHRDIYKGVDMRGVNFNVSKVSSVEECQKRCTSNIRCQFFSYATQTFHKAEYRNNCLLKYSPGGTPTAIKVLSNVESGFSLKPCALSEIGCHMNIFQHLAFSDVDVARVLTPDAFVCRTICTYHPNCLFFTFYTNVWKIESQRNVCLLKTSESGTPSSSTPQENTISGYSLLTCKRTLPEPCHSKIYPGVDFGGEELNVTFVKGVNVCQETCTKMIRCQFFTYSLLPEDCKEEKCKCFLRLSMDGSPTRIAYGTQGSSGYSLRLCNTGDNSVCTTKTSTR
T1 sequence (P03952 391-638, chain 2 of 2): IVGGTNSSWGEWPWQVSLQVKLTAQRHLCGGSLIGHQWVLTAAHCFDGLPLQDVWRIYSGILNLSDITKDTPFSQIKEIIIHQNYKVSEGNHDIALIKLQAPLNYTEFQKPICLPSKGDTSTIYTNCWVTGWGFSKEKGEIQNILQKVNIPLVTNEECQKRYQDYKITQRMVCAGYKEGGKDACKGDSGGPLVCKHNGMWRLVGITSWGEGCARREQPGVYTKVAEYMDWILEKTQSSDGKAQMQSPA

B1: M209-D02 (Fab, V domains shown)
VH: EVQLLESGGGLVQPGGSLRLSCAASGFTFSHYLMTWVRQAPGKGLEWVSYISPSGGHTIYADSVKGRFTISRDNSKNTLYLQMNSLRAEDTAVYYCARVARGITARSRTSYFDDWGQGTLVTVSS
VL: DIQMTQSPGTLSLSPGERATLSCRTSQFVNSNYLAWYQQTPSQAPRLLIYGASSRATGIPDRFSGTGYGTDFTLTISRLEPEDYGTYYCQQSSRTPWTFGQGTRVEIK
- % inhibition at 10 nM (human plasma kallikrein [1]): 74.7%

B2: M6-D09 (antibody, V domains shown)
VH: EVQLLESGGGLVQPGGSLRLSCAASGFTFSFYYMVWVRQAPGKGLEWVSVIYPSGGITVYADSVKGRFTISRDNSKNTLYLQMNSLRAEDTAVYYCARDKWAVMPPYYYYAMDVWGQGTTVTVSS
VL: DIQMTQSPSSLSASVSDRVTITCRASQSIRNYLNWYQQKPSKAPNLLIYAASTLQSGVPARFSGSGSGTDFTLTISSLQPEDFATYYCQQLSGYPHTFGQGTKLEIK
notes: HC as printed runs into CH1
- Ki (human plasma kallikrein [2]): 5.9 nM
- Ki (mouse plasma kallikrein): 3.9 nM

B3: M29-D09 (antibody, V domains shown)
VH: EVQLLESGGGLVQPGGSLRLSCAASGFTFSWYTMVWVRQAPGKGLEWVSYIYPSGGATFYADSVKGRFTISRDNSKNTLYLQMNSLRAEDTAVYYCAMGSYDYIWGFYSDHWGQGTLVTVSS
VL: QSALTQPPTVSVSPGQTARITCSGNKLGDKYVAWYQQKPGQSPMLVIYQDTKRPSAIPERFSGSNSANTATLSISGTQALDEADYYCQAWDSSIVIFGGGTRLTVL
notes: HC as printed runs into CH1
- Ki (human plasma kallikrein [2]): 0.7 nM

From patent US20100183625A1 (published 2010)
